The source of these data is patent US20210347908A1 (ELPISCIENCE SUZHOU BIOPHARMA, published 2021).

Like-named read-outs stand apart in the source and are kept apart here.

Experiment [1] addresses T1, Fc tagged human SIRPα v2 ECD recombinant protein (human).
T1 construct: range 1-369; cloned range M1-R369 includes the signal peptide; also called hSIRPα V2
Put plainly: ELISA. The procedure, abridged:
(§1)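 Binding is reported as EC₅₀ from absorbance at 450 nm. Antibodies (hybridoma-derived or chimeric) are incubated with plate-coated antigen at 37° C. for 1 hour, followed by an HRP-conjugated anti-IgG secondary under the same conditions and TMB substrate.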

For experiment [2], the target named is T2, Fc tagged human SIRPβ ECD recombinant protein (human, UniProt O00241 30-371).
T2 construct: range 1-371; cloned range includes the signal peptide; also called hSIRPβ; not shown: human IgG Fc region (hFc) of the pCPC vector
Put plainly: ELISA. The procedure, abridged: as §1
(In an ELISA, binding on a coated surface is turned into a signal by an enzyme label.)

Experiment [3] addresses T3, chimeric SIRPα of B-hSIRPA mice (IgV domain of human SIRPα); IgC1/C2, transmembrane and intracellular domains … (human; mouse, UniProt P78324 31-149; P97797 151-513, limits assumed).
T3 construct: domain: IgV domain;domain: IgC1/C2, transmembrane and intracellular domains; whole, on cells (mCD11b+ mF4/80+ spleen monocytes); also called B-hSIRPA mice derived primary monocytes
Put plainly: FACS on spleen cells of B-hSIRPA mice, anti-human IgG secondary antibody, gated on mCD11b/mF4/80 double positive monocytes. As for the experimental part:
The humanized mice express a chimeric SIRPα, comprised of IgV domain of human SIRPα and IgC1/C2, transmembrane and intracellular domains of mouse SIRPα. Briefly spleen cells of B-hSIRPA mice were harvested and incubated with anti-SIRPα chimeric antibodies at 4° C. for 1 hour. After washing, fluorescence labeled anti-human IgG 2nd antibody (Life Technologies) was added and incubated at 4° C. for 1 hour. […] Anti-SIRPα positive staining population in mCD11b and mF4/80 double positive subset was calculated.

Experiment [4] addresses T1, Fc tagged human SIRPα v2 ECD …. Put plainly: ELISA. The procedure, abridged: (§2)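 OD 450 nm readings gave EC₅₀ values after a TMB reaction of 15 min at room temperature, stopped with 1N HCl. Before that, antibodies were bound to antigen-coated wells for 1 h at 37° C. An HRP-labelled anti-mouse or anti-human IgG secondary was then applied for a further 1 h at 37° C.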
This is another data set of the same source.

Experiment [5] addresses T2, Fc tagged human SIRPβ ECD recombinant …. Put plainly: ELISA. The procedure, abridged: as §2
This is another data set of the same source.

The target in experiment [6] is T4, biotin labeled soluble human SIRPα v1 ECD recombinant protein (human, UniProt P78324 31-373, biotin labeled).
T4 construct: extracellular domain
Put plainly: competitive ELISA; competitor 022. How it is done: (§3) Competitive ELISA assay was used for epitope binning of 9 functional antibodies. Briefly excessive competitor antibody and biotin labeled soluble human SIRPα v1 ECD recombinant protein were co-incubated with ELISA microplate coated antibody. After washing, HRP-SA was added and incubated at 37° C. for 1 hour. Then, […] of TMB solution (Biotechnology) was added. After incubation for 15 minutes at room temperature, the reaction was stopped by the addition of […] of 1N HCl. OD 450 nm was read. Competition ratio was calculated. The antibodies that can compete each other for binding to SIRPα have the similar binding epitope.

In experiment [7] the target is T4, biotin labeled soluble human SIRPα v1 …. Put plainly: competitive ELISA; competitor 29-AM4-5. How it is done: as §3
For experiment [8] the target is unchanged. Put plainly: competitive ELISA; competitor HEFLB. As for the experimental part:
as §3

For experiment [9] the target is unchanged. Put plainly: competitive ELISA; competitor 050. As for the experimental part:
as §3

Experiment [10] has the same target. Put plainly: competitive ELISA; competitor KWAR23. As for the experimental part:
as §3

The target is the same in experiment [11]. Put plainly: competitive ELISA; competitor 074. As for the experimental part:
as §3

T4 sequence (P78324 31-373): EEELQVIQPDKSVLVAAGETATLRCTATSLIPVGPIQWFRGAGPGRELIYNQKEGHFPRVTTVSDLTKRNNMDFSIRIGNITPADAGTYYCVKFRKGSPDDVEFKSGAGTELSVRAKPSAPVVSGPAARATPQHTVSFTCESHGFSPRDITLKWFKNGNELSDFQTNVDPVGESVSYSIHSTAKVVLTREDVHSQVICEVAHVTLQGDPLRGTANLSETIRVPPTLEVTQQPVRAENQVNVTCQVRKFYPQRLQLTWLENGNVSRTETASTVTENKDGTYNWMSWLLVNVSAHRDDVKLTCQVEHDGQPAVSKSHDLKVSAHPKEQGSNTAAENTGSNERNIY
T2 sequence (O00241 30-371 limits assumed, form in doubt): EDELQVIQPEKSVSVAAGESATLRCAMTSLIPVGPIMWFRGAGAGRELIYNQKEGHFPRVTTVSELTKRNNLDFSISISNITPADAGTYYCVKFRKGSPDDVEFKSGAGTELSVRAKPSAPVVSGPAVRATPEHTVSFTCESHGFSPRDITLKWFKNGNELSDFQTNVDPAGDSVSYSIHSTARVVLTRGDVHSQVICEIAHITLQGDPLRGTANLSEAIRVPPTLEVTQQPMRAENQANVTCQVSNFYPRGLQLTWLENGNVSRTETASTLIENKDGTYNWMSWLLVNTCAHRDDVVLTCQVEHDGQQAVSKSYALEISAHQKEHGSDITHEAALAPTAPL
T3 sequence (P78324 other isoform, or with tags, fused parts or gaps mutant limits assumed): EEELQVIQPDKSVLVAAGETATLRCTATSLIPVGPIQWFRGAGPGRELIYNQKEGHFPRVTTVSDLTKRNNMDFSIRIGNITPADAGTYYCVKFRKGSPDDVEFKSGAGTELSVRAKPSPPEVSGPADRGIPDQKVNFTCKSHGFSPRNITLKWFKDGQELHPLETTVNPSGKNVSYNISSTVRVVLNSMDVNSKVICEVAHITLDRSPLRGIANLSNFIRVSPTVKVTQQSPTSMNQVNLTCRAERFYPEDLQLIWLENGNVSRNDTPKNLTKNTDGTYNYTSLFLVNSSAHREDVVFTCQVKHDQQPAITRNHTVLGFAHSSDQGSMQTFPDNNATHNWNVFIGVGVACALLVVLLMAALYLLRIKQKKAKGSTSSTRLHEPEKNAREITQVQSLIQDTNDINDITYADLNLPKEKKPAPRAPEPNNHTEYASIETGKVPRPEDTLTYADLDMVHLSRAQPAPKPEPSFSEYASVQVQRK

B1: chimeric antibody 022c (antibody, V domains shown)
VH: QIQLVQSGPELKKPGETVKISCKASGYTFTDYAMHWVKQAPGKGLKWMGWKNTETGESTYAEDFKGRFAFFLETSASTAYLQINNVKNEDTATYFCARGGYGSNYVMDYWGQGTSVIVSS
VL: DIQMTQSSSSFSVSLGDRVTITCKASEDIYNRLAWYQQKPGNAPRLLISGATSLETGVPSRFSGSGSGKDYTLSITSLQTEDVATYYCQQYWNSPRTFGGGTKLEIK
By EC50 is commonly meant the concentration needed to bring the measured effect to its halfway point. With B1, the 50% effective concentration (EC50) is 110 pM in experiment [1] and 80 pM in [2]. Also, the binding result in experiment [3] is on record as “no binding”.

B2: Antibody 022 (hybridoma antibody) (antibody, V domains shown)
VH: QIQLVQSGPELKKPGETVKISCKASGYTFTDYAMHWVKQAPGKGLKWMGWKNTETGESTYAEDFKGRFAFFLETSASTAYLQINNVKNEDTATYFCARGGYGSNYVMDYWGQGTSVIVSS
VL: DIQMTQSSSSFSVSLGDRVTITCKASEDIYNRLAWYQQKPGNAPRLLISGATSLETGVPSRFSGSGSGKDYTLSITSLQTEDVATYYCQQYWNSPRTFGGGTKLEIK
notes: mouse hybridoma antibody
For the molecule B2, the EC50 in experiment [4] was 40 pM; in experiment [5], 30 pM. In addition, the “% Competition” value in [6] is 81%; in [7], 2%; in [8] it was 1%; in experiment [9], 79%; in experiment [10] it was 1%; in experiment [11], -1%.

B3: chimeric antibody 050c (antibody, V domains shown)
VH: QIQLVQSGPELKKPGETVKISCKASGYTFTHYSMHWVKQAPGKGLKWMGWINTETAEPTYVDDFKGRFAFSLEASASTAFFQINNLKNEDTATYFCARGGLRQGDYWGQGTTLTVSS
VL: QIVLTQSPPIMSASPGEKVTLTCSATSSVSASYLYWFQQKPGSSPKLWIYSTSNLASGVPARFSGSGSGTSYSLTISNMEPADAASYFCHQWSSYPYTFGGGTKLEIK
For B3, in experiment [1], the concentration for a half-maximal effect (EC50) was 100 pM. Moreover, the EC50 in experiment [2] amounted to 80 pM. In experiment [3], the “Positive Staining Population (% in mCD11b, mF4/80 double positive subset)” value was 0.16% and the binding result is “no binding”.

B4: Antibody 050 (hybridoma antibody) (antibody, V domains shown)
VH: QIQLVQSGPELKKPGETVKISCKASGYTFTHYSMHWVKQAPGKGLKWMGWINTETAEPTYVDDFKGRFAFSLEASASTAFFQINNLKNEDTATYFCARGGLRQGDYWGQGTTLTVSS
VL: QIVLTQSPPIMSASPGEKVTLTCSATSSVSASYLYWFQQKPGSSPKLWIYSTSNLASGVPARFSGSGSGTSYSLTISNMEPADAASYFCHQWSSYPYTFGGGTKLEIK
notes: mouse hybridoma antibody
In the case of B4, the EC50 in experiment [4] is 80 pM; in experiment [5], 110 pM. Moreover, the “% Competition” value is 79% in experiment [6]; -6% in [7]; -14% in experiment [8]; 83% in experiment [9]; 0% in [10]; 2% in [11].

B5: chimeric antibody 074c (antibody, V domains shown)
VH: QVQLQQPRAELVKPGASVMLSCKASGYTFSSYWIHWVRQGPGQGLEWIGLIHPNSGNTDCSETFKNKATLTVDTSSSTAYMQLSSLASEDSAVYYCARDGASYDWFVHWGQGTLVTVSA
VL: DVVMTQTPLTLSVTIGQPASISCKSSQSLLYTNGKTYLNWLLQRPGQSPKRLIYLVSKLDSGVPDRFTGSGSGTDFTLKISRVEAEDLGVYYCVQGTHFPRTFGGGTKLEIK
As to B5, in experiment [1], the 50% effective concentration (EC50) was 140 pM. The concentration for a half-maximal effect (EC50) in experiment [2] is 110 pM. In experiment [3], the “Positive Staining Population (% in mCD11b, mF4/80 double positive subset)” value stood at 0.14% and the binding result is “no binding”.

B6: Antibody 074 (hybridoma antibody) (antibody, V domains shown)
VH: QVQLQQPRAELVKPGASVMLSCKASGYTFSSYWIHWVRQGPGQGLEWIGLIHPNSGNTDCSETFKNKATLTVDTSSSTAYMQLSSLASEDSAVYYCARDGASYDWFVHWGQGTLVTVSA
VL: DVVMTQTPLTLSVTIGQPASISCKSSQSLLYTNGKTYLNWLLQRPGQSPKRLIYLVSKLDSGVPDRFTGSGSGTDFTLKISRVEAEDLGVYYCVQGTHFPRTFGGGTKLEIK
notes: mouse hybridoma antibody
Take B6: the EC50 in [4] and in experiment [5] was 20 pM in each case. Besides, the “% Competition” value is -5% in experiment [6]; -19% in experiment [7]; -14% in experiment [8]; 7% in experiment [9]; -14% in experiment [10]; 92% in experiment [11].

B7: chimeric antibody 055c (antibody, V domains shown)
VH: EVKLVESEGGLVQPGDSMKLSCTASGFTFSDYFMTWIRQVPEKGLEWIANVNYDGRSTYYLDSLKSRFIISRDNANNILYLQMSSLKSEDTATYYCAREGSQTPLYAVDYWGQGTSVTVSS
VL: DIVMTQSQKFMSTTVGDRVNITCKASQNVGTAVAWYQQKPGQSPKLLIYLASNRYTGVPDRFTGSGSGTDFTLTVSDMRSEDLADYFCQQYSIYPFTFGSGTKLEIK
For the molecule B7, in experiment [1], the half-maximal effective concentration (EC50) was 110 pM. In experiment [3], the “Positive Staining Population (% in mCD11b, mF4/80 double positive subset)” value stood at 0.13% and the binding result is recorded as “no binding”.

B8: chimeric antibody 001c (antibody, V domains shown)
VH: EVKLEESGGGLVQPGGSMKLSCVASGFTFRNYWMNWVRQSPERGLEWIAEISLKSNTYATHYAESVKGRFAISRDGSKSSFYLQMNDLRAEDTGIYYCTTFTKVVADWHLDVWGAGTTVTVSS
VL: DVLMTQTPLSLPVSLGDQASISCRSSQNIVHSNGNTYLEWYLQKPGQSPKLLIYKVSNRFSGVPDRFSGSGSGTDFTLRISRVEAEDLGVYYCFQGSHVPFTFGSGTKLEIK
On to B8, for which the concentration for a half-maximal effect (EC50) was determined as 90 pM in experiment [1] and 120 pM in experiment [2]. Also, the “Positive Staining Population (% in mCD11b, mF4/80 double positive subset)” value in experiment [3] came to 91%.

B9: chimeric antibody 002c (antibody, V domains shown)
VH: EVKLEESGGGLVQPGGSMILSCVASGFTFRNYWMNWVRQSPERGLEWIAEITLKSNTYATHYAESVKGRFAISRDDSKSSFYLQMNDLRPEDTGIYYCTTFTKVVADWHLDVWGAGTTVTVSS
VL: DVLMTQTPLSLPVSLGDQASISCRSSQNIVHSNGNTYLEWYLQKPGQSPKLLIYKISNRFSGVPDRFSGSGSGTDFTLRISRVEAEDLGVYYCFQGSHVPFTFGSGTKLEIQ
With B9, the half-maximal effective concentration (EC50) in [1] is 60 pM; in experiment [2], 110 pM. Also, in experiment [3], the “Positive Staining Population (% in mCD11b, mF4/80 double positive subset)” value was determined as 88.9%.

B10: chimeric antibody 032c (antibody, V domains shown)
VH: EVRLEESGGGLVQPGGSMKLSCVVSGFTFRNYWMNWVRQSPERGLEWIAEITLKSNTYATHYAESVKGRFAISRDDSKSSFYLQMNDLRPEDTGIYYCTTFTKVVADWHLDVWGAGTTVTVSS
VL: DVLMTQTPLSLPVNLGDQASISCRSSQNIVHSNGNTYLEWYLQKPGQSPKLLIYKVSNRFSGVPDRFSGSGSGTDFTLRISRVEAEDLGVYYCFQGSHVPFTFGSGTKLEIK
With B10, the figures for the EC50 in experiment [1] and in experiment [2] were 110 pM and 120 pM, respectively. For the same molecule, in experiment [3], the “Positive Staining Population (% in mCD11b, mF4/80 double positive subset)” value was found to be 91.5%.

B11: chimeric antibody 035c (antibody, V domains shown)
VH: QIQLVQSGPELRKPGETVKISCKASGYSFTNYAMNWVKQAPGKVLKWMGFINTYTGEPTYADDFKGRFAFSLETSASTAYLQINNLKNEDTATYFCTRTRGYYDFDGGAFDYWGQGTSLTVSS
VL: DIVMTQSQKFMSTSIGDRVSVTCKASQNVGTHLAWYQQKPGQSPKALIFSASYRYIGVPDRFTGSGSGTDFTLTITNVQSEDLAEYFCQQYNTYPLTFGAGTKLELK
As for B11, the 50% effective concentration (EC50) in experiment [1] and in experiment [2] was 80 pM each time. For the same molecule, the “Positive Staining Population (% in mCD11b, mF4/80 double positive subset)” value in experiment [3] is 91.3%.

B12: Antibody 035 (hybridoma antibody) (antibody, V domains shown)
VH: QIQLVQSGPELRKPGETVKISCKASGYSFTNYAMNWVKQAPGKVLKWMGFINTYTGEPTYADDFKGRFAFSLETSASTAYLQINNLKNEDTATYFCTRTRGYYDFDGGAFDYWGQGTSLTVSS
VL: DIVMTQSQKFMSTSIGDRVSVTCKASQNVGTHLAWYQQKPGQSPKALIFSASYRYIGVPDRFTGSGSGTDFTLTITNVQSEDLAEYFCQQYNTYPLTFGAGTKLELK
notes: mouse hybridoma antibody
For the molecule B12, the results for the EC50 in experiment [4] and in experiment [5] were 40 pM and 20 pM, respectively. In addition, the “% Competition” value in experiment [6] is -1%; in experiment [7], 50%; in [8], 2%; in experiment [9] it was -3%; in experiment [10], -6%; in experiment [11], 6%.
